The values below come from article PMC10786891, “Massively parallel profiling of RNA-targeting CRISPR-Cas13d”.

Substitutions are numbered along the chain they refer to. Numbers in names are those of the source.

First the molecules themselves.
T1: EsCas13d, nuclease-dead (Eubacterium siraeum, UniProt B0MS50, R295A;H300A;R849A;H854A)
T1 sequence: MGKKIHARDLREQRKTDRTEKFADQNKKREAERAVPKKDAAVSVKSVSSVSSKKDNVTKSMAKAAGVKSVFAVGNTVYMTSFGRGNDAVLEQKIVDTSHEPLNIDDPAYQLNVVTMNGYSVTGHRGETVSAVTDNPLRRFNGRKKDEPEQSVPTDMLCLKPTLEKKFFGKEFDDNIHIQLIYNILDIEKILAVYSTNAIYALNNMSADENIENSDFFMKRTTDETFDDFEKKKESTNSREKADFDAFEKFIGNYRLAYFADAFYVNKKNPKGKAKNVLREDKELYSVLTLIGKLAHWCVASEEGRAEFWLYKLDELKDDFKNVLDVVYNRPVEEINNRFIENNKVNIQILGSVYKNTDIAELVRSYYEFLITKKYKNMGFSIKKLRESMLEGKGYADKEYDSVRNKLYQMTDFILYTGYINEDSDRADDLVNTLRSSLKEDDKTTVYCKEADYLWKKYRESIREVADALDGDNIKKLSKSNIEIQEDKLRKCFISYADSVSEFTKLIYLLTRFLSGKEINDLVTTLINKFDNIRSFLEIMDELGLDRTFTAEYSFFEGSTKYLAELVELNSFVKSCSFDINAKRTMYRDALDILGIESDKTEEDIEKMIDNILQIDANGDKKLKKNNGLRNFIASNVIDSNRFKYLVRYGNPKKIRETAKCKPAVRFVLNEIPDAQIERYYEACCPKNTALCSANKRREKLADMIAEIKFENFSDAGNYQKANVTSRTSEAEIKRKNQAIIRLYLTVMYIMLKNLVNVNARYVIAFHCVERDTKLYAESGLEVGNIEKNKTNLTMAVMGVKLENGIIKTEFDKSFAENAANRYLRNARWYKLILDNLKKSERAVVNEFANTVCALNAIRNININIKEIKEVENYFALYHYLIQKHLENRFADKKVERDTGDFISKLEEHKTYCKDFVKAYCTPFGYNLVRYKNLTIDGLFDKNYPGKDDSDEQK

B1: target 1 insC 3' of 19,insU 3' of 12 (mixed)
RNA 1: CACCCGUGCAAAAAUGCAGGGGUCUAAAACUGAGCGGAUAACCUCUCUAUGG
RNA 2: GGGAAUGGAUCCACAUCUACGAAUUCGUACCAUCAGAGAGGUUUAUCCGCUCACCGAGAUCGGAAGAGCACACGU
B2: target 1 A14G,U19A (mixed)
RNA 1: B1 RNA 1
RNA 2: GGGAAUGGAUCCACAUCUACGAAUUCGUACCAAAGAGGGGUUAUCCGCUCACCGAGAUCGGAAGAGCACACGU
B3: target 1 insC 3' of 13,insG 3' of 11 (mixed)
RNA 1: B1 RNA 1
RNA 2: B1 RNA 2 with C34A, A35G, G36A, A37G, G38A, A39G, G40C, U43G
B4: target 1 A1G,C22U (mixed)
RNA 1: B1 RNA 1
RNA 2: B2 RNA 2 with C30U, A33U, G38A, A51G
B5: target 1 insA 3' of 12,insU 3' of 7 (mixed)
RNA 1: B1 RNA 1
RNA 2: GGGAAUGGAUCCACAUCUACGAAUUCGUACCAUAGAGAGGAUUAUCUCGCUCACCGAGAUCGGAAGAGCACACGU
B6: target 1 insA 3' of 13,insU 3' of 2 (mixed)
RNA 1: B1 RNA 1
RNA 2: B5 RNA 2 with G40A, A41G, U47C, C48G, G49C, C50U, U51C, C52U
B7: target 1 insA 3' of 21,insG 3' of 4 (mixed)
RNA 1: B1 RNA 1
RNA 2: B1 RNA 2 with U33A, C34U, U44A, A45U, U46C, C48G, G49C, C50G
B8: target 1 U8G,U10C (mixed)
RNA 1: B1 RNA 1
RNA 2: B2 RNA 2 with A33U, G38A, U42C, U44G
B9: target 1 insA 3' of 22,insU 3' of 1 (mixed)
RNA 1: B1 RNA 1
RNA 2: GGGAAUGGAUCCACAUCUACGAAUUCGUACACAUAGAGAGGUUAUCCGCUCAUCCGAGAUCGGAAGAGCACACGU
B10: target 1 insA 3' of 17,insA 3' of 15 (mixed)
RNA 1: B1 RNA 1
RNA 2: B1 RNA 2 with C34A, A35G, G36A, G40A, U42G
B11: target 1 insC 3' of 14,insA 3' of 12 (mixed)
RNA 1: B1 RNA 1
RNA 2: B5 RNA 2 with G39C, A41G, U42A, A44U, U45A, C46U, U47C
B12: target 1 insA 3' of 11,insA 3' of 2 (mixed)
RNA 1: B1 RNA 1
RNA 2: B5 RNA 2 with A41U, U42A, U47C, C48G, G49C, C50U, U51C, C52A
B13: target 1 C7A,U10G (mixed)
RNA 1: B1 RNA 1
RNA 2: B2 RNA 2 with A33U, G38A, U42G, C45A
B14: target 1 insC 3' of 13,insA 3' of 4 (mixed)
RNA 1: B1 RNA 1
RNA 2: B5 RNA 2 with G40C, A41G, U47C, C48G, G49C, C50A

For this series, the target named is T1, EsCas13d, nuclease-dead. Description: crRNA (strand 1, pre-loaded); Mg2+; 40 mM Tris-HCl pH 7.5, 150 mM NaCl, 6 mM MgCl2, 1 mM DTT, 0.1% Tween-20, 0.2 mg/ml BSA; 25 C; 10 min per concentration, then washed. The following applies: tags: His6-TwinStrep-SUMO cleaved; N-terminal SNAP kept (SNAP-Surface 488); label: 3' end held by stalled T7 RNA polymerase.
What is called Kd is the free concentration of one partner at which half of the binding sites on the other are occupied at equilibrium, for simple one-to-one binding. Higher therefore signals a looser complex. Molecule B1 returned a Kd of 0.0306 ± 0.0032 µM. For B2, the Kd came to 0.091 ± 0.017 µM.

B3 registered a Kd of 0.0285 ± 0.0034 µM. Then B4, with 0.0139 ± 0.0025 µM. For B5, the affinity, expressed as Kd, was 0.042 ± 0.005 µM. In turn, B6 registered a Kd of 0.0043 ± 0.0004 µM. Compared with the last molecule, the Kd is about 9.8-fold lower. For B7, the Kd was 0.0143 ± 0.0011 µM. Compared with the last molecule, the Kd is about 3.3-fold higher. In the case of B8, the Kd worked out at 0.0198 ± 0.0012 µM. Under B9 stands 0.015 ± 0.0009 µM; under B10, 0.008 ± 0.0008 µM. In the case of B11, the Kd stood at 0.07 ± 0.014 µM. Take B12: the Kd amounted to 0.0161 ± 0.0012 µM. B13: the dissociation constant Kd was 0.0097 ± 0.0005 µM. Take B14: the Kd stood at 0.00486 ± 0.00017 µM.
